Test results published in patent US20060252116A1, “Icam-4 binding sites” (priority 2002, published 2006).

Tests used:
[1] = biological target: α4β1 integrin (VLA-4) (UniProt P13612); assay: HEL cell adhesion to coated human ICAM-4Fc (2.5 ug/ml), peptide 750 uM; competitor human ICAM-4Fc
[2] = biological target: α4β1 integrin (VLA-4) (UniProt P13612); assay: HEL cell adhesion to coated human ICAM-4Fc (2.5 ug/ml); value is for the MIXTURE of SEQ ID NO: 9 and 11, each peptide 750 uM
[3] = biological target: α4β1 integrin (VLA-4) (UniProt P13612); assay: HEL cell adhesion to coated human ICAM-4Fc (2.5 ug/ml); value is for the MIXTURE of SEQ ID NO: 9, 10 and 11, each peptide 750 uM
[4] = biological target: α4β1 integrin (VLA-4) (UniProt P13612); assay: HEL cell adhesion to coated human ICAM-4Fc (2.5 ug/ml); value is for the MIXTURE of SEQ ID NO: 10 and 11, each peptide 750 uM
[5] = biological target: α4β1 integrin (VLA-4) (UniProt P13612); assay: HEL cell adhesion to coated human ICAM-4Fc (2.5 ug/ml); value is for the MIXTURE of SEQ ID NO: 9, 11 and control peptide 13, each peptide 750 uM
[6] = biological target: α4β1 integrin (VLA-4) (UniProt P13612); assay: HEL cell adhesion to coated human ICAM-4Fc (2.5 ug/ml); value is for the MIXTURE with control peptide SEQ ID NO: 13, each peptide 750 uM
[7] = biological target: α4β1 integrin (VLA-4) (UniProt P13612); assay: HEL cell adhesion to coated human ICAM-4Fc (2.5 ug/ml); value is for the MIXTURE of SEQ ID NO: 10, 11 and control peptide 13, each peptide 750 uM
[8] = biological target: α4β1 integrin (VLA-4) (UniProt P13612); assay: HEL cell adhesion to coated human NCAMFc (control), no peptide
[9] = biological target: α4β1 integrin (VLA-4) (UniProt P13612); assay: HEL cell adhesion to coated murine ICAM-4Fc (5 ug/ml), peptide 500 uM; competitor murine ICAM-4Fc
[10] = biological target: α4β1 integrin (VLA-4) (UniProt P13612); assay: HEL cell adhesion to coated human ICAM-4Fc (2.5 ug/ml); value is for the MIXTURE of SEQ ID NO: 9 and 10, each peptide 750 uM
[11] = biological target: α4β1 integrin (VLA-4) (UniProt P13612); assay: HEL cell adhesion to coated murine ICAM-4Fc (5 ug/ml); value is for the MIXTURE with control peptide SEQ ID NO: 13, each peptide 500 uM
[12] = biological target: α4β1 integrin (VLA-4) (UniProt P13612); assay: HEL cell adhesion to coated human ICAM-4Fc (5 ug/ml); value is for the MIXTURE of SEQ ID NO: 9 and 10, each peptide 500 uM
[13] = biological target: α4β1 integrin (VLA-4) (UniProt P13612); assay: HEL cell adhesion to coated murine ICAM-4Fc (5 ug/ml); value is for the MIXTURE of SEQ ID NO: 9 and 10, each peptide 500 uM
[14] = biological target: α4β1 integrin (VLA-4) (UniProt P13612); assay: HEL cell adhesion to coated human ICAM-4Fc (5 ug/ml); value is for the MIXTURE with control peptide SEQ ID NO: 13, each peptide 500 uM
[15] = biological target: α4β1 integrin (VLA-4) (UniProt P13612); assay: HEL cell adhesion to coated human ICAM-4Fc (5 ug/ml), peptide 500 uM; competitor human ICAM-4Fc
[16] = biological target: α4β1 integrin (VLA-4) (UniProt P13612); assay: HEL cell adhesion to coated human ICAM-4Fc (2.5 ug/ml); value is for the MIXTURE of SEQ ID NO: 9, 10 and control peptide 13, each peptide 750 uM

α4β1 integrin (VLA-4), sequence (P13612 34-1032, chain 1 of 2): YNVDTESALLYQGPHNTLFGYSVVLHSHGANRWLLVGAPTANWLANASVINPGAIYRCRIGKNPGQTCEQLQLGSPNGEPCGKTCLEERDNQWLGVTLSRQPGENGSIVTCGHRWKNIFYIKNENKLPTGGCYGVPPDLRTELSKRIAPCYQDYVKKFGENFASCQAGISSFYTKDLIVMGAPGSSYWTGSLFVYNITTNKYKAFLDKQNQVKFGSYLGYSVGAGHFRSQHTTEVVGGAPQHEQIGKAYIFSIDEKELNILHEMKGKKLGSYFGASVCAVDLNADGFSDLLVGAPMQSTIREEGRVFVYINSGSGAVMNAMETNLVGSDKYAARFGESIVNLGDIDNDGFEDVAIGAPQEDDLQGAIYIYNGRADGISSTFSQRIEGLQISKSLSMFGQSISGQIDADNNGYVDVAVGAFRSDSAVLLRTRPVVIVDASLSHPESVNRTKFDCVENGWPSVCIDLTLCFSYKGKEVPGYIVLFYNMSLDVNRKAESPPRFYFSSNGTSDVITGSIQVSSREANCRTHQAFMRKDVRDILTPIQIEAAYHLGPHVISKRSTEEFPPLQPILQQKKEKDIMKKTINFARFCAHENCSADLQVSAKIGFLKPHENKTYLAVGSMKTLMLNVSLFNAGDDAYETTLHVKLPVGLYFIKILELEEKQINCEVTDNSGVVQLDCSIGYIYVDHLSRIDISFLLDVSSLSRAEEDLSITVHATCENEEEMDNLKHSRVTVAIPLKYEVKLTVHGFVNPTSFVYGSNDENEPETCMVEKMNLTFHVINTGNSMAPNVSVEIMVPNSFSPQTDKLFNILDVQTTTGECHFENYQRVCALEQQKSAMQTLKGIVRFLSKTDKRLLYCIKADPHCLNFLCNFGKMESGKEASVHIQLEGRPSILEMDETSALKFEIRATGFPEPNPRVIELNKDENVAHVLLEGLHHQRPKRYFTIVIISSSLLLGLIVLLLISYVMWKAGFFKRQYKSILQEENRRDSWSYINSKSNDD
α4β1 integrin (VLA-4), sequence (P05556 21-798, chain 2 of 2, further chain): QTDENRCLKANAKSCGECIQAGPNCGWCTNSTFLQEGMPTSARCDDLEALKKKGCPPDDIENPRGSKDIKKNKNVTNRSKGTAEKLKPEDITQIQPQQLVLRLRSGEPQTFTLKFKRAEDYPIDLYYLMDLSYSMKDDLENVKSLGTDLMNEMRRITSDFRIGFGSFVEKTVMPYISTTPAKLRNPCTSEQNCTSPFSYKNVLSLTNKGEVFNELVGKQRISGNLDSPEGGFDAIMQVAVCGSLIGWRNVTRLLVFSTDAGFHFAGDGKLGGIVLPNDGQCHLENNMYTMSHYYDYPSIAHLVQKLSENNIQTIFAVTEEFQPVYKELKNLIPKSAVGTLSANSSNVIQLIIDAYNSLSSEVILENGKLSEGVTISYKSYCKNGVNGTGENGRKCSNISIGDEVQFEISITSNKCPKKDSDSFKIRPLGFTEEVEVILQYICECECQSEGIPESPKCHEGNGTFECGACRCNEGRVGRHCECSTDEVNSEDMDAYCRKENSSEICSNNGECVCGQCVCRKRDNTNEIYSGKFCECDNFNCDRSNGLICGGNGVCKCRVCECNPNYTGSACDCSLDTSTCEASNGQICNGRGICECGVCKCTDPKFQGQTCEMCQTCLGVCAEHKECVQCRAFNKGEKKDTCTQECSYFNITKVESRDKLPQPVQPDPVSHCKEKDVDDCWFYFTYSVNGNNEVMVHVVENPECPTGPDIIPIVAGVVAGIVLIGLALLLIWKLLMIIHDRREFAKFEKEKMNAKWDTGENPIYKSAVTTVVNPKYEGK

| Substance | input cells bound as % of binding to ICAM-4Fc in the absence of peptides [1] [%] | input cells bound as % of binding to ICAM-4Fc in the absence of peptides [2] [%] | input cells bound as % of binding to ICAM-4Fc in the absence of peptides [3] [%] | input cells bound as % of binding to ICAM-4Fc in the absence of peptides [4] [%] | input cells bound as % of binding to ICAM-4Fc in the absence of peptides [5] [%] | input cells bound as % of binding to ICAM-4Fc in the absence of peptides [6] [%] | input cells bound as % of binding to ICAM-4Fc in the absence of peptides [7] [%] | input cells bound as % of binding to ICAM-4Fc in the absence of peptides [8] [%] | input cells bound as % of binding to murine ICAM-4Fc in the absence of peptides [8] [%] | input cells bound as % of binding to murine ICAM-4Fc in the absence of peptides [9] [%] | input cells bound as % of binding to ICAM-4Fc in the absence of peptides [10] [%] | input cells bound as % of binding to murine ICAM-4Fc in the absence of peptides [11] [%] | input cells bound as % of binding to ICAM-4Fc in the absence of peptides [12] [%] | input cells bound as % of binding to murine ICAM-4Fc in the absence of peptides [13] [%] | input cells bound as % of binding to ICAM-4Fc in the absence of peptides [14] [%] | input cells bound as % of binding to ICAM-4Fc in the absence of peptides [15] [%] | input cells bound as % of binding to ICAM-4Fc in the absence of peptides [16] [%] |
| --- | --- | --- | --- | --- | --- | --- | --- | --- | --- | --- | --- | --- | --- | --- | --- | --- | --- |
| aWssLahcl peptide (SEQ ID NO: 11) | 50 | 43 | 42 | 41 | 42 | 46 | 40 | – | – | – | – | – | – | – | – | – | – |
| human NCAMFc (from UniProt P13591 20-718) (Fc fusion) | – | – | – | – | – | – | – | 3 | 19 | – | – | – | – | – | – | – | – |
| svpFWVrms peptide (SEQ ID NO: 9) | 64 | 43 | 42 | – | 42 | 59 | – | – | – | 67 | 52 | 70 | 35 | 47 | 60 | 61 | 49 |
| tRwATSRit peptide (SEQ ID NO: 10) | 58 | – | 42 | 41 | – | 55 | 40 | – | – | 58 | 52 | 55 | 35 | 47 | 56 | 58 | 49 |
